Measurements: US20240316157A1, “PHARMACEUTICAL COMPOSITION OF PCSK9 INHIBITOR AND GLP-1 RECEPTOR AGONIST” (Gan & Lee Pharmaceuticals Co., Ltd., priority 2021, published 2024)

What was measured:
wild-type hamsters [1] = assay: Effect of the combination of Alirocumab and semaglutide on blood glucose in hamsters; type: in vivo, hamster; conditions: for Blood glucose (relative concentration): 7th day after dosing relative to baseline, s.c. once every two days, high-fat high-sugar feed, x±s; for Blood glucose decline rate E value: 7th day, versus control group, recorded as 0 if not significantly different from control
Method: The experimental animals in this Example were wild-type hamsters, and the hamsters were grouped and administered according to the following standard: • 1) Control group: injection of excipient samples, subcutaneous injection (administration of […]), once every two days; • 2) Alirocumab group: injection of Alirocumab sample (Alirocumab 10 mg/kg), subcutaneous injection, once every two days; • 3) Semaglutide group: injection of semaglutide sample (semaglutide 0.12 mg/kg), subcutaneous injection, once every two days; • 4) Alirocumab+semaglutide group: injection of Alirocumab (Alirocumab 10 mg/kg) and semaglutide (semaglutide 0.12 mg/kg) by subcutaneous injection, the frequency of administration was once every two days.
On the first day of the experiment, each group of wild-type hamsters was given high-fat and high-sugar feed (containing 10% lard, 10% cholesterol, and 60% fructose) and injected with drugs according to the above dosing regimen for each group, and blood was collected from the inner canthus vein of the hamster on the day before administrating and 7th day after dosing, plasma was anticoagulated with sodium heparin, and plasma was obtained by centrifugation of the whole blood at 4° C. for 10 min at 4000 rpm, and the blood glucose level was detected by glucose assay kit (Biosino Bio-Technology and Science Incorporation).
The obtained blood glucose data were normalized according to the following method: taking the blood glucose of each group before the administration of the drug as the baseline, the relative concentration of the corresponding time point obtained by comparing the blood glucose at the monitoring point after the administration of the drug to the baseline glucose, the relative concentration of blood glucose was expressed as x±s, and the decline rate of the blood glucose of each administration group was calculated by using the analysis of variance using the GraphPad Prism software, in which x means the average value of data, and s denotes the standard deviation.
Decline rate of blood glucose: E=[(relative blood glucose of […])/relative blood glucose of control group]×100%
Note: If there is no significant difference between the relative blood glucose value of the administered group and the relative blood glucose of the control group, the value of E is recorded as 0.
Calculation method of synergistic effect: the determination was made by using Zhengjun Jin's Q value, in which the Q value was obtained by the following formula: Q=Ea+b/(Ea+Eb−Ea×Eb); wherein Ea+b indicated the decline rate of detection indexes of the combination and mixed administration of the two drugs, and Ea, Eb indicated the decline rate of detection indexes of the two drugs used alone. If Q is between 0.85 and 1.15, it means that the two drugs have an additive effect; Q>1.15, the two drugs have a synergistic effect; Q<0.85, the two drugs have an antagonistic effect.

[2] = system: transgenic mice overexpressing human PCSK9; assay: Effect of Evolocumab in combination with Compound 5 on blood lipid (LDL-C) in hyperlipidemic mice; type: in vivo, mouse; conditions: conclusion in words from Table 3
Method: In this example, experimental animals were transgenic mice overexpressing human PCSK9 (4 weeks old). After being fed a high-fat diet for 37 days, their fasting lipid levels were measured.
On the 5th day after dosing, the lipid levels of the mice were measured. The lipid measurement method was as follows: Blood was collected from the mice via the inner canthus vein, plasma was obtained by centrifuging whole blood at 4° C. and 4000 rpm for 10 minutes with sodium heparin as an anticoagulant. LDL-C levels were measured using an LDL-C assay kit (Nanjing Jiancheng Bioengineering Institute).
The blood lipid data obtained were normalized using the following method: The blood lipid of each group before administration was taken as baseline, and the relative concentration of lipid at the corresponding time point obtained by comparing the blood lipid at the monitoring points after administration with that before administration. The relative concentration of blood lipid is represented as ‘x±s’, with ‘x’ representing the mean value of the data and ‘s’ representing the standard deviation. Variance analysis was conducted using GraphPad Prism software.

wild-type hamsters [3] = assay: Effect of the combination of Evolocumab and Compound 5 on blood glucose in hamsters; type: in vivo, hamster
Method: The experimental animals in this Example were wild-type hamsters, and the hamsters were grouped and administered according to the following standard: • 1) Control group: subcutaneous injection of excipient samples, subcutaneous injection (administration of 2 μL/kg), once every two days; • 2) Evolocumab group: injection of Evolocumab samples (Evolocumab 30 mg/kg) by subcutaneous injection, once every two days; • 3) Compound 5 group: injection of compound 5 sample (compound 5: 0.12 mg/kg), using subcutaneous injection, once every two days; • 4) Evolocumab+Compound 5 group: injection of a pharmaceutical combinations containing Evolocumab and Compound 5 (Evolocumab 30 mg/kg, Compound 5: 0.12 mg/kg) by subcutaneous injection once every two days.
On the first day of the experiment, each group of wild-type hamsters was given high-fat and high-sugar feed (containing 10% lard, 10% cholesterol, and 60% fructose) and injected with samples according to the dosing regimen described above for each group, and blood was collected from the inner canthus vein of the hamsters on the day before administration and 7th day after administration, and plasma was anticoagulated with heparin sodium, and plasma was obtained by centrifugation for 10 min at 4° C. at 4,000 rpm, and the blood glucose level was measured by glucose assay kit (Biosino Bio-Technology and Science Incorporation.) […]

[4] = system: humanized mice overexpressing PCSK9 (B6-hPCSK9); assay: Animal efficacy of Evolocumab in combination with Compound 5: body weight, fasting blood glucose, LDL-C; type: in vivo, mouse
Excerpt: In this example, humanized mice overexpressing PCSK9 (B6-hPCSK9) (males, 6 weeks old) were used, totaling 30 mice. These humanized mice were divided into six groups: K0-K5, with 5 mice per group. K0 served as the NC control group (fed a high-fat feed throughout the experiment), while K1-K5 were experimental groups. After a 1-week adaptation period with growth and breeding feed (Keao Xieli Feed), they were fed a high-fat diet for one month (Xietong Pharmaceutical Bio-engineering), and dosing was initiated after the high-fat diet feeding.
The dosing for each experimental group was done via subcutaneous injection once in total, with the dose administrated calculated based on the dose of Evolocumab. […] If the dose was doubled (2×), the dose was doubled accordingly.
Throughout the experiment, various indicators were monitored with the following frequencies: for weight monitoring, the weight was measured and recorded before dosing and then every other day after blood collection, this was performed a total of 3 times. […] Blood glucose levels were measured using a glucose assay kit (provided by Biosino Bio-Technology and Science Inc). […] LDL-C in the serum samples was measured using an LDL-C test kit (Nanjing Jiacheng Bioengineering Institute).

[5] = Reduced CE-SDS light and heavy chain ratio of Evolocumab (storage stability); type: physicochemical; conditions: 4° C., reference of one-month study of Suspension Formulation-2
Excerpt: The Acidic and Alkaline Peak ratio of Evolocumab monoclonal antibody in Suspension Formulation-2 falls within the quality standard range of originator product. (main peak≥51%, alkaline peak≤16%). • (4) The results of reduced CE-SDS testing for the light-heavy chain ratio of Evolocumab monoclonal antibody in Suspension Formulation-2 are presented in Table 22: […]

[6] = CEX-HPLC acid-to-base peak ratio of Evolocumab (storage stability); type: physicochemical; conditions: 4° C., reference of one-month study of Suspension Formulation-2

In the case of Semaglutide, the “Blood glucose (relative concentration)” value (wild-type hamsters [1]) is reported as 0.61 ± 0.062 and the “Blood glucose decline rate E value” (wild-type hamsters [1]) is reported as 14.1%.

In the case of Alirocumab, the “Blood glucose (relative concentration)” value (wild-type hamsters [1]) is reported as 0.71 ± 0.049, the “Blood glucose decline rate E value” (wild-type hamsters [1]) is reported as 0% and the hypoglycemic function (wild-type hamsters [1]; conclusion in words from Table 1) is reported as “did not show a hypoglycemic function”.

B1: Evolocumab (antibody, chains of the INN, looked up, V domains shown)
VH: EVQLVQSGAEVKKPGASVKVSCKASGYTLTSYGISWVRQAPGQGLEWMGWVSFYNGNTNYAQKLQGRGTMTTDPSTSTAYMELRSLRSDDTAVYYCARGYGMDVWGQGTTVTVSS
VL: ESALTQPASVSGSPGQSITISCTGTSSDVGGYNSVSWYQQHPGKAPKLMIYEVSNRPSGVSNRFSGSKSGNTASLTISGLQAEDEADYYCNSYTSTSMVFGGGTKLTVL
notes: PCSK9 antibody; source is Repatha®, commercially available from Amgen
For B1, the lipid-lowering effect [2] was “lipid-lowering effects”, the “Blood glucose decline rate E value” (wild-type hamsters [3]; 7th day, versus control group, recorded as 0 if not significantly different from control) was 0% and the hypoglycemic function (wild-type hamsters [3]; conclusion in words from Table 2) was “did not show a hypoglycemic function”. The body weight ([4]; single s.c. 1× dose (K2 530 ug/kg Compound 5; K3, K4 12.3 mg/kg Evolocumab), FIGS. 1-2) was “did not experience weight loss” and the LDL-C ([4]; single s.c. 1× dose (K3, K4 12.3 mg/kg Evolocumab), FIG. 5) was “ability to lower LDL-C levels was consistent”.

B2: Laboratory-Purified Evolocumab: Commercially available Evolocumab (Repatha®) purified in the laboratory, 140 mg/ml (antibody, chains of the INN, looked up, V domains shown)
VH: B1 VH
VL: B1 VL
In the case of B2, the “Pre-LC + LC + HC(%)” value [5] is reported as 98.79% and the “Alkaline Peak (%)” value [6] is reported as 10.569%.
